# How the values were obtained:
# TRPA1 = target: T1, TRPA1 (Homo sapiens, UniProt O75762); assay: Ion channel panel (IonWorks Barracuda): TRPA1; type: cell-based; details: 100% = no change, <100% = inhibition
# T1 construct: host or cells: HEK293 or CHO
# Method: (§1) This example describes a method for assaying ion channel activity in cells.
# (§2) Peptides were screened in duplicate at final concentrations of 20 μM and 200 nM, as determined by amino acid analysis, and diluted into HEPES buffered physiological saline (HBPS). HEK293 or CHO cells from the American Type Culture Collection (ATCC) were transfected with the appropriate ion channel before use. HEK293 cells were grown in Dulbecco's Modified Eagle Medium/Nutrient Mixture F-12, and CHO cells were cultured in Ham's F-12 media. All cultures were supplemented with 10% fetal bovine serum, 100 U/ml penicillin G, 100 μg/ml streptomycin sulfate, and the appropriate selection antibiotics. Prior to use, cells were washed twice with Hank's Balanced Salt Solution, and treated with Accutase cell detachment solution (Sigma-Aldrich). Cells were then washed. Peptides and controls were incubated with cells for at least five minutes.
# (§3) Percent inhibition was defined as: (1-(Ipeptide/Icontrol))×100%).
# (§4) Percent values were calculated using the following formula: % activation=(IPeptide/Icontrol)×100%, where IPeptide is the current produced by co-application a peptide with agonist, and Icontrol refers to the current produced by stimulation in control. Control used for each ion channel is the reference compound matched to a particular channel, as illustrated in TABLE 10 below.
# Nav1.7 = target: T2, Nav1.7 (Homo sapiens, UniProt Q15858); assay: cell-based; type: cell-based; details: 100% = no change; for Activity of Nav1.7 with peptide, expressed as a percentage of the reference compound: peptide at 0.2 μM; for Activity of Nav1.7 with peptide (percentage of the reference compound): peptide at 20 μM
# T2 construct: host or cells: HEK293 or CHO
# T2 sequence (Q15858 whole entry): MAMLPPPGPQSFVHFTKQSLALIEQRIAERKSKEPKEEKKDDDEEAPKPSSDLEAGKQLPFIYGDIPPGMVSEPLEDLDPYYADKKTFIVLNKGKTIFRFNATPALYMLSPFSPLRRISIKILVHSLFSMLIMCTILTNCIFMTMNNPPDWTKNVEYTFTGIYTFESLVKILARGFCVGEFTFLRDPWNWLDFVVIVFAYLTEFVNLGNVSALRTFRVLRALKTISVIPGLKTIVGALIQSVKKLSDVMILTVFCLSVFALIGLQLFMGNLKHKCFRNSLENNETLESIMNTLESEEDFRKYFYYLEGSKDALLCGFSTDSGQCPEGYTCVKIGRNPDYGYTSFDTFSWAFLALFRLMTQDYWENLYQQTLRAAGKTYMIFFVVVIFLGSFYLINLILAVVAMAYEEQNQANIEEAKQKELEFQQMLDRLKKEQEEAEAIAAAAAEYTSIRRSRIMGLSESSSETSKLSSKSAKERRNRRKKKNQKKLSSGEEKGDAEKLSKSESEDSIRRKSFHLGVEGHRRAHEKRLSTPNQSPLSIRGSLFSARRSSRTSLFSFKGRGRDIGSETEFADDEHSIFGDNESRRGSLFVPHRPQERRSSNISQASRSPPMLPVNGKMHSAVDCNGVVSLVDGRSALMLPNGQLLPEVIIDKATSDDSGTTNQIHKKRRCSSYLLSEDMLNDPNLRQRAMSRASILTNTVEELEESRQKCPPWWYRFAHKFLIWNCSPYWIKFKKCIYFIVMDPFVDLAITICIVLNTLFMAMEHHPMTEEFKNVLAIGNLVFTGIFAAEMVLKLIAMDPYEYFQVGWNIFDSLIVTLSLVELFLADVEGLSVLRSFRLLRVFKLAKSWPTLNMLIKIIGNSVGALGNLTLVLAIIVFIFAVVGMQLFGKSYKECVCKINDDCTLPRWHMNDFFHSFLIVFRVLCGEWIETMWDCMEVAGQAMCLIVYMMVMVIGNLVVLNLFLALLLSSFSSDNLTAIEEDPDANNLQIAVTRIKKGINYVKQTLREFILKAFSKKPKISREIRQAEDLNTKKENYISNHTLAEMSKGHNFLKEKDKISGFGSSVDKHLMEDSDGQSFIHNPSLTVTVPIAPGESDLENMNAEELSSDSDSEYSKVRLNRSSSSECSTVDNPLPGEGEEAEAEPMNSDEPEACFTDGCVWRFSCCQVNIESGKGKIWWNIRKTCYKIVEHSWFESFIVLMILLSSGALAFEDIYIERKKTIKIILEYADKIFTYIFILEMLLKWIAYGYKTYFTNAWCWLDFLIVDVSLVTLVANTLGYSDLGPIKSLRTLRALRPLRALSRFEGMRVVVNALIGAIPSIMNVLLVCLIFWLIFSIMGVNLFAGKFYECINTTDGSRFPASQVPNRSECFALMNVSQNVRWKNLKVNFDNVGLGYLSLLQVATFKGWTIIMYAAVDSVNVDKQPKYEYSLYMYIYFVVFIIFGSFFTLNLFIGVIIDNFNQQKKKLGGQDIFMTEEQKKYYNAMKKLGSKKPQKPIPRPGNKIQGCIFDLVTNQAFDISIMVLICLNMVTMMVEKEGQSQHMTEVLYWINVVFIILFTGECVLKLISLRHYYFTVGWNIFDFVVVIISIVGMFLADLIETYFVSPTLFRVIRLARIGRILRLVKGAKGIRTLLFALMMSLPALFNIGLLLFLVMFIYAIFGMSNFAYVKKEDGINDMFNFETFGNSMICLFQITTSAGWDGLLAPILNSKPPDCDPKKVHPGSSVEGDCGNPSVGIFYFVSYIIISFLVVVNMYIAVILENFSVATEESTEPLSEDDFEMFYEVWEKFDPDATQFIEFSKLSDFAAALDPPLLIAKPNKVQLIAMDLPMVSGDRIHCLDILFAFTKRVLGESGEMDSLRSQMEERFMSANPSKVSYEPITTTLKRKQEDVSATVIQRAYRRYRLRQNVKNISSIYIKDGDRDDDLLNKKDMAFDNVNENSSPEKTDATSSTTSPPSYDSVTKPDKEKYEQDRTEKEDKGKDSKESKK
# Method: as §1
# as §2, with “Peptides were screened in duplicate at final concentrations of 20 μM and 200 nM, as determined by amino acid analysis, and diluted into HEPES buffered physiological saline (HBPS).” left out
# as §3, §4
# Kv2.1 = target: T3, Kv2.1 (Homo sapiens, UniProt Q14721); assay: cell-based; details: 100% = no change, <100% = inhibition
# T3 construct: host or cells: HEK293 or CHO
# Method: as §1, §2, §3, §4
# Cav2.2 = target: T4, Cav2.2 (Homo sapiens, UniProt Q00975); assay: cell-based; details: 100% = no change, <100% = inhibition
# T4 construct: host or cells: HEK293 or CHO
# Method: as §1, §2, §3, §4
# Cav2.1 = target: T5, Cav2.1 (Homo sapiens, UniProt O00555); assay: cell-based; details: 100% = no change, <100% = inhibition
# T5 construct: host or cells: HEK293 or CHO
# Method: as §1, §2, §3, §4
# 5HT3a = target: T6, 5HT3a (Homo sapiens, UniProt P46098); assay: Ion channel panel (IonWorks Barracuda): 5HT3a; type: cell-based
# T6 construct: host or cells: HEK293 or CHO
# T6 sequence (P46098 whole entry, looked up): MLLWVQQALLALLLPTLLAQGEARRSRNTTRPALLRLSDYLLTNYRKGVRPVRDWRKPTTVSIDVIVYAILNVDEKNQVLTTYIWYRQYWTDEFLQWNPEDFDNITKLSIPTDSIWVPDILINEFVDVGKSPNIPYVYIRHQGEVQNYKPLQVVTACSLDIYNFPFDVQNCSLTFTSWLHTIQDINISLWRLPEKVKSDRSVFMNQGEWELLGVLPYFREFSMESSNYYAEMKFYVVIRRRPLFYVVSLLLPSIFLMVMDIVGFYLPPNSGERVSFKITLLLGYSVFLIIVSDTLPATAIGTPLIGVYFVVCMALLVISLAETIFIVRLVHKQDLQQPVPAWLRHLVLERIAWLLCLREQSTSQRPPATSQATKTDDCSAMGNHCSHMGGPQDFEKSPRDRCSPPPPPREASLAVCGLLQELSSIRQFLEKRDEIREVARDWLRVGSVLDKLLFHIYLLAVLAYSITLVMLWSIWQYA
# Method: as §1, §2, §3, §4
# α3β4 = target: T7, α3β4 (Homo sapiens, UniProt P30926+P32297); assay: Ion channel panel (IonWorks Barracuda): α3β4; type: cell-based; details: 100% = no change, <100% = inhibition
# T7 construct: host or cells: HEK293 or CHO
# Method: as §1, §2, §3, §4
# NR2B = target: T8, NR2B (Homo sapiens, UniProt Q13224); assay: Ion channel panel (IonWorks Barracuda): NR2B; type: cell-based; details: 100% = no change, <100% = inhibition
# T8 construct: host or cells: HEK293 or CHO
# Method: as §1, §2, §3, §4
# Kv1.2 = target: T9, Kv1.2 (Homo sapiens, UniProt P16389); assay: cell-based; type: cell-based; details: 100% = no change, <100% = inhibition
# T9 construct: host or cells: HEK293 or CHO
# Method: as §1, §2, §3, §4
# Kv1.3 = target: T10, Kv1.3 (Homo sapiens, UniProt P22001); assay: cell-based; type: cell-based; details: 100% = no change, <100% = inhibition
# T10 construct: host or cells: HEK293 or CHO
# Method: as §1, §2, §3, §4
# Kv1.1 = target: T11, Kv1.1 (Homo sapiens, UniProt Q09470); assay: cell-based; type: cell-based; details: 100% = no change, <100% = inhibition
# T11 construct: host or cells: HEK293 or CHO
# Method: as §1, §2, §3, §4
# hERG = hERG (Homo sapiens, UniProt Q12809); assay: in vitro; details: 100% = no change, <100% = inhibition
# Method: as §1, §2, §3, §4
# Nav1.5 = Nav1.5 (Homo sapiens, UniProt Q14524); assay: in vitro; details: 100% = no change; for Activity of Nav1.5 with peptide, expressed as a percentage of the reference compound: peptide at 0.2 μM; for Activity of Nav1.5 with peptide (percentage of the reference compound): peptide at 20 μM
# Sequence of Nav1.5 (Q14524 whole entry): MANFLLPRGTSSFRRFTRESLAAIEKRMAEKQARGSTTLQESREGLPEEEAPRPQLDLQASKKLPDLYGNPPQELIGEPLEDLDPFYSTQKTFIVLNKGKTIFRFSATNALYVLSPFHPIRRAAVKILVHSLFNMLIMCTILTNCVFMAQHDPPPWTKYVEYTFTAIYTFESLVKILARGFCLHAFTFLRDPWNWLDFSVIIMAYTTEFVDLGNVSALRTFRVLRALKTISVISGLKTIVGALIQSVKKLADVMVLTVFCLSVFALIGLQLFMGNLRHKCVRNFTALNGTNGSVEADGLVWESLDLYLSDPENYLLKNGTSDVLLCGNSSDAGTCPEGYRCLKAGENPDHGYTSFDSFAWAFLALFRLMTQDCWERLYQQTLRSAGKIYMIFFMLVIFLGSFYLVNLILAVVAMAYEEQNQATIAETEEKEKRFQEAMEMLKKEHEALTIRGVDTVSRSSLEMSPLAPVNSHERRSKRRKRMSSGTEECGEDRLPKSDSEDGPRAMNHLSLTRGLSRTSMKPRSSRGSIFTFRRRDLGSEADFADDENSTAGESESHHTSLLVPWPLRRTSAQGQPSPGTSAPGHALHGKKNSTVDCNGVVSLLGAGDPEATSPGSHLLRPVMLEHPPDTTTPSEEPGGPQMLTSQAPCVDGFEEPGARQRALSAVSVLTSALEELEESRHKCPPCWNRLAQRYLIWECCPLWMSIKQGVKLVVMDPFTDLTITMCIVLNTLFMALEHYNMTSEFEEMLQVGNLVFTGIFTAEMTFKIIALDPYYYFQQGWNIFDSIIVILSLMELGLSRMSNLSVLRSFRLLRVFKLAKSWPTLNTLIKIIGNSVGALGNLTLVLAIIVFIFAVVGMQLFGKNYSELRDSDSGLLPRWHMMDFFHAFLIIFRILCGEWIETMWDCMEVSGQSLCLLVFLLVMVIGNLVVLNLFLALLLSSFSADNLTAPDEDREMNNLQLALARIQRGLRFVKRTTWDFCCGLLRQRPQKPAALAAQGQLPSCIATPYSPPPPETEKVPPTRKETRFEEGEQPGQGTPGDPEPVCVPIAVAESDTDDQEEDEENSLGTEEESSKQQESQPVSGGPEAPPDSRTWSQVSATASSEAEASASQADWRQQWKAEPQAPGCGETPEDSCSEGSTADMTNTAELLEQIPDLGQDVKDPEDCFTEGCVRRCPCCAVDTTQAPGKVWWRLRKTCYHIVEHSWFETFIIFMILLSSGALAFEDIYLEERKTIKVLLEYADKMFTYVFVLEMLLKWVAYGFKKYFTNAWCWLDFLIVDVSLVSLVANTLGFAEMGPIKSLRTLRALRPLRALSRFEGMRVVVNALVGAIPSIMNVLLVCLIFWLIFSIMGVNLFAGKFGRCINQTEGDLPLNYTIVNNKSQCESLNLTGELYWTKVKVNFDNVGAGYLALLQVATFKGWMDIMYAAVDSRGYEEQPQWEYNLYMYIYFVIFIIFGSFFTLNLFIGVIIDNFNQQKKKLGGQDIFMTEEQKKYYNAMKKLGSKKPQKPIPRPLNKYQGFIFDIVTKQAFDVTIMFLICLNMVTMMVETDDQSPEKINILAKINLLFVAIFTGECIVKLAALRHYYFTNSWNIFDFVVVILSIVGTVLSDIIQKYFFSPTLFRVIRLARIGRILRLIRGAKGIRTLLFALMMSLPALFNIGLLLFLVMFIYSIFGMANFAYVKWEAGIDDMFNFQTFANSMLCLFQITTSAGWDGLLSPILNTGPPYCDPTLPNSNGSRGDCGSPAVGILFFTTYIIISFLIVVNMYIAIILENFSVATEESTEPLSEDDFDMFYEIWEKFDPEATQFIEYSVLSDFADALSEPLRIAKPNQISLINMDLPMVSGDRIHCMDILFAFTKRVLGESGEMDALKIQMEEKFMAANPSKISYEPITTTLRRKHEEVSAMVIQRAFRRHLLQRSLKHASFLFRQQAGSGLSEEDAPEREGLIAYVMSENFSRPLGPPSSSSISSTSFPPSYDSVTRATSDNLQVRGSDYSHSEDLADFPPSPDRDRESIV
# Method: as §1, §2, §3, §4
# TRPV1 = target: T12, TRPV1 (Homo sapiens, UniProt Q8NER1); assay: Ion channel panel (IonWorks Barracuda): TRPV1; type: cell-based; details: 100% = no change, <100% = inhibition
# T12 construct: host or cells: HEK293 or CHO
# Method: as §1, §2, §3, §4
# α4β2 = target: T13, α4β2 (Homo sapiens, UniProt P17787+P43681); assay: Ion channel panel (IonWorks Barracuda): α4β2; type: cell-based; details: 100% = no change, <100% = inhibition
# T13 construct: host or cells: HEK293 or CHO
# T13 sequence (P43681 29-627): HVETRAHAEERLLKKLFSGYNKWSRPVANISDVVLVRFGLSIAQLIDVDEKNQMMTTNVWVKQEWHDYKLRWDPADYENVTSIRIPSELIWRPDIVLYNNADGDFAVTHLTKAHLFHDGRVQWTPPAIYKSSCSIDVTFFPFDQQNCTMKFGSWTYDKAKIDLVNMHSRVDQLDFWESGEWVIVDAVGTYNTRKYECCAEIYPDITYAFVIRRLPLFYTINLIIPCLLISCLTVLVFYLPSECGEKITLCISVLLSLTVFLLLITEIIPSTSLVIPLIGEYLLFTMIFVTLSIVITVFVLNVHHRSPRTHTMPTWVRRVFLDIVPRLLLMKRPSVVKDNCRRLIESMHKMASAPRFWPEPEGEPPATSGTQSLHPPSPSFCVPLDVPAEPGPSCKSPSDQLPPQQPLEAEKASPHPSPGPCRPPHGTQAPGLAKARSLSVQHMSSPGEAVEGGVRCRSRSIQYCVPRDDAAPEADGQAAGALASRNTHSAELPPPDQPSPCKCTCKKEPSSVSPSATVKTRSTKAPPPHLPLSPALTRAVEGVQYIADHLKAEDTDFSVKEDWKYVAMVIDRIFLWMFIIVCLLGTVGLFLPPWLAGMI
# T13 sequence (P17787 26-502): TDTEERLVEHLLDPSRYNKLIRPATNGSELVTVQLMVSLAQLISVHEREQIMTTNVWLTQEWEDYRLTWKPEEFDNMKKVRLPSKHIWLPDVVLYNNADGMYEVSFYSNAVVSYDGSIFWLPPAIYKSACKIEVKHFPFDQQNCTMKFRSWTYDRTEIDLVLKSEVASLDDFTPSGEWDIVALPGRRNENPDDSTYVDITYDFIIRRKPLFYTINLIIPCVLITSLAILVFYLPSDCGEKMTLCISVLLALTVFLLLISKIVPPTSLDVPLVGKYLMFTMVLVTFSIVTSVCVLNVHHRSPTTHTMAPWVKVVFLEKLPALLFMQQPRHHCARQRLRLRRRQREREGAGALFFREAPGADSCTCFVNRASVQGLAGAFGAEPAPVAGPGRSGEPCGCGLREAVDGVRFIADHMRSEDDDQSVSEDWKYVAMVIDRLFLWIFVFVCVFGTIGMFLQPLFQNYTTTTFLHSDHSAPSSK
# Method: as §1, §2, §3, §4
# GABA = assay: Ion channel panel (IonWorks Barracuda): GABA; type: cell-based; details: 100% = no change, <100% = inhibition
# Method: as §1, §2, §3, §4
# Kir2.1 = target: T14, Kir2.1 (Homo sapiens, UniProt P63252); assay: Ion channel panel (IonWorks Barracuda): Kir2.1; type: cell-based; details: 100% = no change, <100% = inhibition
# T14 construct: host or cells: HEK293 or CHO
# Method: as §1, §2, §3, §4
# NR2A = target: T15, NR2A (Homo sapiens, UniProt Q12879); assay: Ion channel panel (IonWorks Barracuda): NR2A; type: cell-based; details: 100% = no change, <100% = inhibition
# T15 construct: host or cells: HEK293 or CHO
# Method: as §1, §2, §3, §4
# [1] = first of two Nav1.7 columns (probably TP1)
# [2] = second of two Nav1.7 columns (probably TP2)
# [3] = first of two Nav1.5 columns (probably TP1)
# [4] = second of two Nav1.5 columns (probably TP2)
substance,measurement,setting,value
19 (GSQFTDVKCTGSKQCWPVCKQMFGKPNGKCMNGKCRCYS) [compound 19],"Activity of TRPA1 with peptide, expressed as a percentage of the reference compound",TRPA1; peptide at 0.2 μM,126%
same,Activity of TRPA1 with peptide (percentage of the reference compound),TRPA1; peptide at 20 μM,109%
same,"Activity of Nav1.7 with peptide, expressed as a percentage of the reference compound",Nav1.7; [1],91%
same,"Activity of Nav1.7 with peptide, expressed as a percentage of the reference compound",Nav1.7; [2],92%
same,Activity of Nav1.7 with peptide (percentage of the reference compound),Nav1.7; [1],121%
same,Activity of Nav1.7 with peptide (percentage of the reference compound),Nav1.7; [2],140%
same,"Activity of Kv2.1 with peptide, expressed as a percentage of the reference compound",Kv2.1; peptide at 0.2 μM,95%
same,Activity of Kv2.1 with peptide (percentage of the reference compound),Kv2.1; peptide at 20 μM,108%
same,"Activity of Cav2.2 with peptide, expressed as a percentage of the reference compound",Cav2.2; peptide at 0.2 μM,116%
same,Activity of Cav2.2 with peptide (percentage of the reference compound),Cav2.2; peptide at 20 μM,94%
same,"Activity of Cav2.1 with peptide, expressed as a percentage of the reference compound",Cav2.1; peptide at 0.2 μM,106%
same,Activity of Cav2.1 with peptide (percentage of the reference compound),Cav2.1; peptide at 20 μM,109%
same,Activity of 5HT3a with peptide (percentage of the reference compound),5HT3a,69%
same,"Activity of 5HT3a with peptide, expressed as a percentage of the reference compound",5HT3a,89%
same,"Activity of a3b4 with peptide, expressed as a percentage of the reference compound",α3β4; peptide at 0.2 μM,101%
same,Activity of a3b4 with peptide (percentage of the reference compound),α3β4; peptide at 20 μM,97%
same,"Activity of NR2B with peptide, expressed as a percentage of the reference compound",NR2B; peptide at 0.2 μM,117%
same,Activity of NR2B with peptide (percentage of the reference compound),NR2B; peptide at 20 μM,130%
same,"Activity of Kv1.2 with peptide, expressed as a percentage of the reference compound",Kv1.2; peptide at 0.2 μM,41%
same,Activity of Kv1.2 with peptide (percentage of the reference compound),Kv1.2; peptide at 20 μM,37%
same,"Activity of Kv1.3 with peptide, expressed as a percentage of the reference compound",Kv1.3; peptide at 0.2 μM,4%
same,Activity of Kv1.3 with peptide (percentage of the reference compound),Kv1.3; peptide at 20 μM,−1%
same,"Activity of Kv1.1 with peptide, expressed as a percentage of the reference compound",Kv1.1; peptide at 0.2 μM,100%
same,Activity of Kv1.1 with peptide (percentage of the reference compound),Kv1.1; peptide at 20 μM,44%
same,"Activity of hERG with peptide, expressed as a percentage of the reference compound",hERG; peptide at 0.2 μM,98%
same,Activity of hERG with peptide (percentage of the reference compound),hERG; peptide at 20 μM,86%
same,"Activity of Nav1.5 with peptide, expressed as a percentage of the reference compound",Nav1.5; [3],112%
same,"Activity of Nav1.5 with peptide, expressed as a percentage of the reference compound",Nav1.5; [4],114%
same,Activity of Nav1.5 with peptide (percentage of the reference compound),Nav1.5; [3],117%
same,Activity of Nav1.5 with peptide (percentage of the reference compound),Nav1.5; [4],117%
same,"Activity of TRPV1 with peptide, expressed as a percentage of the reference compound",TRPV1; peptide at 0.2 μM,94%
same,Activity of TRPV1 with peptide (percentage of the reference compound),TRPV1; peptide at 20 μM,90%
same,"Activity of a4b2 with peptide, expressed as a percentage of the reference compound",α4β2; peptide at 0.2 μM,99%
same,Activity of a4b2 with peptide (percentage of the reference compound),α4β2; peptide at 20 μM,93%
same,"Activity of GABA with peptide, expressed as a percentage of the reference compound",GABA; peptide at 0.2 μM,93%
same,Activity of GABA with peptide (percentage of the reference compound),GABA; peptide at 20 μM,111%
same,"Activity of Kir2.1 with peptide, expressed as a percentage of the reference compound",Kir2.1; peptide at 0.2 μM,107%
same,Activity of Kir2.1 with peptide (percentage of the reference compound),Kir2.1; peptide at 20 μM,93%
same,"Activity of NR2A with peptide, expressed as a percentage of the reference compound",NR2A; peptide at 0.2 μM,90%
same,Activity of NR2A with peptide (percentage of the reference compound),NR2A; peptide at 20 μM,99%

# Source: patent US20200262877A1, “ION CHANNEL-BINDING PEPTIDES AND METHODS OF USE THEREOF” (priority 2017, published 2020)
